Experimental data reported in patent US20220389082A1 (CSL BEHRING LENGNAU, published 2022).

Columns and labels:
[1] = biological target: T1, D′D3 albumin fusion protein (D′D3-FP), dimer (human, Covalent homodimer: the two chains are joined by disulfide bridge(s) within the D3 part (paragraph 124 names Cys-1099, Cys-1142, Cys-1222, Cys-1225, Cys-1227 in SEQ ID NO:4 numbering). N-glycosylated, …); test: SPR (Biacore T200), D′D3-FP captured on anti-albumin antibody, rVIII-SingleChain as analyte, single cycle kinetics, 25° C.
T1 construct: It was expressed in CHO K1 cells with the VWF propeptide, which is cleaved by co-transfected furin; The dimer fraction was isolated by size exclusion chromatography; The description says the dimer is a disulfide-linked homodimer; In the SPR assay it was captured on an anti-albumin antibody; also called dimeric D′D3-FP; rD′D3-FP
T1 sequence (chain, as listed by the source limits assumed, chain 1 of 2): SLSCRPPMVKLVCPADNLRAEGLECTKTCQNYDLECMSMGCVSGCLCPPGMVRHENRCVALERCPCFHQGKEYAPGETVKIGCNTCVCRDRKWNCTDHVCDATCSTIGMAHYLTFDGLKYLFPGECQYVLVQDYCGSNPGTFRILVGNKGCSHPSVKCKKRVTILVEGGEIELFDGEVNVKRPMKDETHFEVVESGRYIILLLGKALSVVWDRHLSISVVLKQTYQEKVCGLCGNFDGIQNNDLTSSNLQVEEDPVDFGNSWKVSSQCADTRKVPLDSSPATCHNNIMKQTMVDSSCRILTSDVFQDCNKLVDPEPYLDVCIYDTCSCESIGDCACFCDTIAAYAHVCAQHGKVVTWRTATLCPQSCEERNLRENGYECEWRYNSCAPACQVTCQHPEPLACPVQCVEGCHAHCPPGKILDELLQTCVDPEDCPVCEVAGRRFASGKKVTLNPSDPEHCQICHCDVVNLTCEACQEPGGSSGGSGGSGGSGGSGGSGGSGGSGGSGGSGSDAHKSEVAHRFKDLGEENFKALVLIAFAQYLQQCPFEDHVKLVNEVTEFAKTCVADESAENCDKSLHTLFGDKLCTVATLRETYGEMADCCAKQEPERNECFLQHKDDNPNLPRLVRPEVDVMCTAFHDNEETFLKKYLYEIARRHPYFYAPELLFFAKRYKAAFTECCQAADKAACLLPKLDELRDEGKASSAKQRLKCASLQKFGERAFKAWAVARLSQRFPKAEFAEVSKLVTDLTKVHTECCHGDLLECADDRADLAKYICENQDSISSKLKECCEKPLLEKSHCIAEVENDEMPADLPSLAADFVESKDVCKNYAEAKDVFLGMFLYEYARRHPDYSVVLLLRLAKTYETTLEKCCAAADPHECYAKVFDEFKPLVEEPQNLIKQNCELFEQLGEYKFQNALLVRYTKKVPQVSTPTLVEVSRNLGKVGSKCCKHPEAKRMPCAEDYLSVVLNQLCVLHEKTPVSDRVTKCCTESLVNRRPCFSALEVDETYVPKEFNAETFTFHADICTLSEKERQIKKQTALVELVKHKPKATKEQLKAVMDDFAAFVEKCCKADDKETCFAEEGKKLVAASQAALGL
T1 sequence (chain, as listed by the source limits assumed, chain 2 of 2): as the sequence (chain, as listed by the source limits assumed, chain 1 of 2) above
Method: (§1) An anti-albumin antibody (MA1-20124, Thermo Scientific) was covalently coupled via its N-terminus to an activated CM 3 chip by NHS (N-Hydroxysuccinimide) and EDC […], both contained in the amine coupling kit (BR1000-50) from GE Healthcare. For immobilization 3 μg/mL of the antibody were diluted in sodium acetate buffer (10 mM, pH 5.0) and the antibody solution was flown over the chip for 7 min. at a flow rate of 10 μL/min. After the immobilization procedure non-coupled dextran filaments were saturated by flowing ethanolamine solution (1 M, pH 8.3) over the chip for 5 min (at a flow rate of 10 μL/min). The aim of saturating the flow cell was to minimize unspecific binding of the analytes to the chip. A reference flow cell was set up by saturating an empty flow cell with ethanolamine by using the same procedure as above.
(§2) Dimeric and monomeric D′D3-FP proteins, respectively, were immobilized to the covalently coupled anti-albumin antibody by a flow of the D′D3-FP proteins (5 μg/mL) over the chip for 3 min (flow rate of 10 μL/min).
(§3) To create binding curves for FVIII, each D′D3-FP protein preparation was diluted in running buffer (HBS-P+: 0.1 M HEPES, 1.5 M NaCl and 0.5% v/v Surfactant P20, pH 7.4; product code BR100671, GE Healthcare) to concentrations of 0.25 nM, 0.5 nM, 1 nM, 3 nM and 4 nM. […]

[2] = biological target: T1, D′D3 albumin fusion protein (D′D3-FP), …; test: SPR (Biacore T200), D′D3-FP captured on anti-albumin antibody, rVIII-SingleChain as analyte, single cycle kinetics, 25° C.; D′D3-FP dimer preparation
Method: as §1, §2, §3

B1: rVIII-SingleChain (single chain Factor VIII molecule, construct dBN(64-53) of WO 2004/067566) (other)
chain: ATRRYYLGAVELSWDYMQSDLGELPVDARFPPRVPKSFPFNTSVVYKKTLFVEFTDHLFNIAKPRPPWMGLLGPTIQAEVYDTVVITLKNMASHPVSLHAVGVSYWKASEGAEYDDQTSQREKEDDKVFPGGSHTYVWQVLKENGPMASDPLCLTYSYLSHVDLVKDLNSGLIGALLVCREGSLAKEKTQTLHKFILLFAVFDEGKSWHSETKNSLMQDRDAASARAWPKMHTVNGYVNRSLPGLIGCHRKSVYWHVIGMGTTPEVHSIFLEGHTFLVRNHRQASLEISPITFLTAQTLLMDLGQFLLFCHISSHQHDGMEAYVKVDSCPEEPQLRMKNNEEAEDYDDDLTDSEMDVVRFDDDNSPSFIQIRSVAKKHPKTWVHYIAAEEEDWDYAPLVLAPDDRSYKSQYLNNGPQRIGRKYKKVRFMAYTDETFKTREAIQHESGILGPLLYGEVGDTLLIIFKNQASRPYNIYPHGITDVRPLYSRRLPKGVKHLKDFPILPGEIFKYKWTVTVEDGPTKSDPRCLTRYYSSFVNMERDLASGLIGPLLICYKESVDQRGNQIMSDKRNVILFSVFDENRSWYLTENIQRFLPNPAGVQLEDPEFQASNIMHSINGYVFDSLQLSVCLHEVAYWYILSIGAQTDFLSVFFSGYTFKHKMVYEDTLTLFPFSGETVFMSMENPGLWILGCHNSDFRNRGMTALLKVSSCDKNTGDYYEDSYEDISAYLLSKNNAIEPRSFSQNSRHPSTRQKQFNATTIPENTTLQSDQEEIDYDDTISVEMKKEDFDIYDEDENQSPRSFQKKTRHYFIAAVERLWDYGMSSSPHVLRNRAQSGSVPQFKKVVFQEFTDGSFTQPLYRGELNEHLGLLGPYIRAEVEDNIMVTFRNQASRPYSFYSSLISYEEDQRQGAEPRKNFVKPNETKTYFWKVQHHMAPTKDEFDCKAWAYFSDVDLEKDVHSGLIGPLLVCHTNTLNPAHGRQVTVQEFALFFTIFDETKSWYFTENMERNCRAPCNIQMEDPTFKENYRFHAINGYIMDTLPGLVMAQDQRIRWYLLSMGSNENIHSIHFSGHVFTVRKKEEYKMALYNLYPGVFETVEMLPSKAGIWRVECLIGEHLHAGMSTLFLVYSNKCQTPLGMASGHIRDFQITASGQYGQWAPKLARLHYSGSINAWSTKEPFSWIKVDLLAPMIIHGIKTQGARQKFSSLYISQFIIMYSLDGKKWQTYRGNSTGTLMVFFGNVDSSGIKHNIFNPPIIARYIRLHPTHYSIRSTLRMELMGCDLNSCSMPLGMESKAISDAQITASSYFTNMFATWSPSKARLHLQGRSNAWRPQVNNPKEWLQVDFQKTMKVTGVTTQGVKSLLTSMYVKEFLISSSQDGHQWTLFFQNGKVKVFQGNQDSFTPVVNSLDPPLLTRYLRIHPQSWVHQIALRMEVLGCEAQDLY
notes: also called FVIII
Q: B1 was tested. Which koff [1] did it give?
A: 0.0015 s⁻¹

Q: And the kon [1]?
A: 4.5e+07 M⁻¹ s⁻¹

Q: What about the Kd [2] of the same binder?
A: 0.034 nM
